How the values were obtained:
Test in all cases: cell-based or functional assay
[1] = target: T1, CD33 (myeloid cell surface antigen CD33) on human AML cell lines HL-60 and HEL (human, UniProt P20138 18-364)
[2] = target: T1, CD33 (myeloid cell surface antigen …); remark: listed apart in the source
[3] = target: CD3 antigen expressed on Jurkat-NFAT reporter cells (human, UniProt P07766 23-207)
CD3 antigen expressed on Jurkat-NFAT reporter cells, sequence (P07766 23-207 limits assumed): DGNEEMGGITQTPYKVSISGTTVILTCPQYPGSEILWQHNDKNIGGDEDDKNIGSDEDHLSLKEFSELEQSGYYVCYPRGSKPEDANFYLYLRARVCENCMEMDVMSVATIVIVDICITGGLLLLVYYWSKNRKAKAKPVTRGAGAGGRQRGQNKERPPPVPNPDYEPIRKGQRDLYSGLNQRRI

T1 sequence (P20138 18-364): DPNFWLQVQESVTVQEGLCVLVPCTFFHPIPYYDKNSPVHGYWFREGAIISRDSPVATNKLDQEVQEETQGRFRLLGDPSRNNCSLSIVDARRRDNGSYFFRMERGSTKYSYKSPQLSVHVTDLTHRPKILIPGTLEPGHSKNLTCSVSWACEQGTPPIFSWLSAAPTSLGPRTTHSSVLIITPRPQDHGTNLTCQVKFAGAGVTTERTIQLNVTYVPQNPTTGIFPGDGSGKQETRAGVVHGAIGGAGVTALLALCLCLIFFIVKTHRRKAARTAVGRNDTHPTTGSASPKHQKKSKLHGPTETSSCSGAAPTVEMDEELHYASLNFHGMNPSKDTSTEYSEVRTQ

B1: CD33 CD3 TCB molecule B ("2+1 IgG CrossFab, inverted" with charge modifications, CD33 binders based on anti-CD33 antibody 2) (bispecific antibody)
chain 1: EVQLLESGGGLVQPGGSLRLSCAASGFTFSTYAMNWVRQAPGKGLEWVSRIRSKYNNYATYYADSVKGRFTISRDDSKNTLYLQMNSLRAEDTAVYYCVRHGNFGNSYVSWFAYWGQGTLVTVSSASVAAPSVFIFPPSDEQLKSGTASVVCLLNNFYPREAKVQWKVDNALQSGNSQESVTEQDSKDSTYSLSSTLTLSKADYEKHKVYACEVTHQGLSSPVTKSFNRGEC
chain 2: EVQLVQSGAEVKKPGSSVKVSCKASGYTITDSNIHWVRQAPGQSLEWIGYIYPYNGGTDYNQKFKNRATLTVDNPTNTAYMELSSLRSEDTAFYYCVNGNPWLAYWGQGTLVTVSSASTKGPSVFPLAPSSKSTSGGTAALGCLVEDYFPEPVTVSWNSGALTSGVHTFPAVLQSSGLYSLSSVVTVPSSSLGTQTYICNVNHKPSNTKVDEKVEPKSCDKTHTCPPCPAPEAAGGPSVFLFPPKPKDTLMISRTPEVTCVVVDVSHEDPEVKFNWYVDGVEVHNAKTKPREEQYNSTYRVVSVLTVLHQDWLNGKEYKCKVSNKALGAPIEKTISKAKGQPREPQVCTLPPSRDELTKNQVSLSCAVKGFYPSDIAVEWESNGQPENNYKTTPPVLDSDGSFFLVSKLTVDKSRWQQGNVFSCSVMHEALHNHYTQKSLSLSP
chain 3: not shown
chain 4: DIQLTQSPSTLSASVGDRVTITCRASESLDNYGIRFLTWFQQKPGKAPKLLMYAASNQGSGVPSRFSGSGSGTEFTLTISSLQPDDFATYYCQQTKEVPWSFGQGTKVEVKRTVAAPSVFIFPPSDRKLKSGTASVVCLLNNFYPREAKVQWKVDNALQSGNSQESVTEQDSKDSTYSLSSTLTLSKADYEKHKVYACEVTHQGLSSPVTKSFNRGEC
- EC50 [pM] 42 h, T-cell mediated killing of HL-60 tumor cells (LDH release, human pan T cells, E:T 5:1) [1]: 18.5 pM
- EC50, activation of Jurkat-NFAT reporter cells via CD3 (luminescence, 5 h, HL-60 target cells, E:T 2.5:1) [2]: 4.3 pM
- EC50, activation of Jurkat-NFAT reporter cells via CD3 (luminescence, 5 h, HL-60 target cells, E:T 2.5:1) [3]: 4.3 pM

B2: CD33 CD3 TCB molecule A ("2+1 IgG CrossFab, inverted" with charge modifications, CD33 binders based on anti-CD33 antibody 1) (bispecific antibody)
chain 1: QVQLVQSGAEVKKPGSSVKVSCKASGYTFTDYNMHWVRQAPGQGLEWIGYIYPYNGGTGYNQKFKSKATITADESTNTAYMELSSLRSEDTAVYYCARGRPAMDYWGQGTLVTVSSASTKGPSVFPLAPSSKSTSGGTAALGCLVEDYFPEPVTVSWNSGALTSGVHTFPAVLQSSGLYSLSSVVTVPSSSLGTQTYICNVNHKPSNTKVDEKVEPKSCDKTHTCPPCPAPEAAGGPSVFLFPPKPKDTLMISRTPEVTCVVVDVSHEDPEVKFNWYVDGVEVHNAKTKPREEQYNSTYRVVSVLTVLHQDWLNGKEYKCKVSNKALGAPIEKTISKAKGQPREPQVCTLPPSRDELTKNQVSLSCAVKGFYPSDIAVEWESNGQPENNYKTTPPVLDSDGSFFLVSKLTVDKSRWQQGNVFSCSVMHEALHNHYTQKSLSLSP
chain 2: not shown
chain 3: EVQLLESGGGLVQPGGSLRLSCAASGFTFSTYAMNWVRQAPGKGLEWVSRIRSKYNNYATYYADSVKGRFTISRDDSKNTLYLQMNSLRAEDTAVYYCVRHGNFGNSYVSWFAYWGQGTLVTVSSASVAAPSVFIFPPSDEQLKSGTASVVCLLNNFYPREAKVQWKVDNALQSGNSQESVTEQDSKDSTYSLSSTLTLSKADYEKHKVYACEVTHQGLSSPVTKSFNRGEC
chain 4: DIQMTQSPSSLSASVGDRVTITCRASESVDNYGISFMNWFQQKPGKAPKLLIYAASNQGSGVPSRFSGSGSGTDFTLTISSLQPDDFATYYCQQSKEVPWTFGQGTKVEIKRTVAAPSVFIFPPSDRKLKSGTASVVCLLNNFYPREAKVQWKVDNALQSGNSQESVTEQDSKDSTYSLSSTLTLSKADYEKHKVYACEVTHQGLSSPVTKSFNRGEC
- EC50 [pM] 42 h, T-cell mediated killing of HL-60 tumor cells (LDH release, human pan T cells, E:T 5:1) [1]: 19.8 pM
- EC50, activation of Jurkat-NFAT reporter cells via CD3 (luminescence, 5 h, HL-60 target cells, E:T 2.5:1) [2]: 79.4 pM
- EC50, activation of Jurkat-NFAT reporter cells via CD3 (luminescence, 5 h, HL-60 target cells, E:T 2.5:1) [3]: 79.4 pM
